Assay [1] has as its target T1, ToxSp H10_S11insC labelled with 5-iodoacetamidofluorescein (Vibrio cholerae).
T1 construct: also called FITC ToxSp H10_S11insC
T1 chain: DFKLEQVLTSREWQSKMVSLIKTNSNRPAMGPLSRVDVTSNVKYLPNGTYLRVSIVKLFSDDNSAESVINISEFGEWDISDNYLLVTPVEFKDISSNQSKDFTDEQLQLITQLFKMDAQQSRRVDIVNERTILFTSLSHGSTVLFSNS
The assay can be described thus: fluorescence polarisation. The note with it: both partners purified. A general note: In fluorescence polarisation assays a small probe gives low polarisation when free and higher when bound to something large.

Assay [2] deals with T2, periplasmic domain of Vibrio cholerae ToxS (ToxSp) (Vibrio cholerae).
T2 chain: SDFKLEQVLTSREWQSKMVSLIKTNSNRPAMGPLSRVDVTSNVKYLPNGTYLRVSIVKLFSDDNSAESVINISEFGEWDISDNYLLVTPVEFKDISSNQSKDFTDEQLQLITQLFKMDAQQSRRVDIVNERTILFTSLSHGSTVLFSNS
The assay can be described thus: SEC-MALS. The following applies: both partners purified.

B1: periplasmic domain of Vibrio cholerae ToxR, oxidized, with an intramolecular disulfide bond (ToxRp-ox) (domain or fragment)
chain: PSQTSFKPLTVVDGVAVNMPNNHPDLSNWLPSIELCVKKYNEKHTGGLKPIEVIATGGQNNQLTLNYIHSPEVSGENITLRIVANPNDAIKVCE
notes: also called pToxR-ox; ToxRp-ox-V.c
Regarding B1, the dissociation constant (Kd) (as a rule, the concentration at which binding is half-saturated) in assay [1] turned out to be 11.6 ± 3.4 nM. In addition, in assay [2], the stoichiometry N – broadly, a count of units in the complex or per binding partner – came out at 1 ToxRp per ToxSp.

For the origin of these results see PMC8359183, “The periplasmic domains of Vibriocholerae ToxR and ToxS are forming a strong heterodimeric complex independent on the redox state of ToxR cysteines” (Molecular Microbiology, 2021).
